Laboratory results reported in the supplement of paper PMC9112550, “Optimization of the antimicrobial peptide Bac7 by deep mutational scanning” (BMC Biology, 2022).
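Also: peptides expressed intracellularly from a pBAD plasmid library in pooled LB shake-flask culture, induced with 0.3% L-arabinose, DNA abundance read by NGS, three biological replicates, DESeq2 with apeglm shrinkage.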

Each sequence was assayed on Escherichia coli TOP10 (assay: shrunken log2 fold change of peptide-encoding DNA abundance (4.5 h post-induction vs induction); higher = less antimicrobial activity (less host growth inhibition)). Details: time post-induction: 4.5 h; library: site-saturation at positions 5, 18, 19, 20.
RRIRQRPPRLPRPRPRPHHWPRP was tested, and the “shrunken log2 fold change” value was -0.0737. In the case of RRIRFRPPRLPRPRPRPSHTPRP, the “shrunken log2 fold change” value was -0.035. RRIRFRPPRLPRPRPRPWQWPRP was tested, and the “shrunken log2 fold change” value was 0.00967. RRIRRRPPRLPRPRPRPTFYPRP was tested, and the “shrunken log2 fold change” value was 0.191. In the case of RRIRIRPPRLPRPRPRPLDRPRP, the “shrunken log2 fold change” value was 0.00847. In the case of RRIRCRPPRLPRPRPRPPMDPRP, the “shrunken log2 fold change” value was 0.0314. In the case of RRIRKRPPRLPRPRPRPMDDPRP, the “shrunken log2 fold change” value was 0.123. With RRIRSRPPRLPRPRPRPWFKPRP the “shrunken log2 fold change” value was -0.504. With RRIRTRPPRLPRPRPRPTQHPRP the “shrunken log2 fold change” value was 0.22. In the case of RRIRPRPPRLPRPRPRPCDCPRP, the “shrunken log2 fold change” value was 0.0287. For RRIRARPPRLPRPRPRPIAYPRP, the “shrunken log2 fold change” value was 0.21. For RRIRMRPPRLPRPRPRPWMMPRP, the “shrunken log2 fold change” value was 0.024. For RRIRCRPPRLPRPRPRPNTNPRP, the “shrunken log2 fold change” value was -0.66. In the case of RRIRHRPPRLPRPRPRPNYKPRP, the “shrunken log2 fold change” value was -0.603. In the case of RRIRCRPPRLPRPRPRPKLEPRP, the “shrunken log2 fold change” value was -0.125. RRIRVRPPRLPRPRPRPMNVPRP was tested, and the “shrunken log2 fold change” value was -0.0915. RRIRMRPPRLPRPRPRPPDNPRP was tested, and the “shrunken log2 fold change” value was 1.55. With RRIRNRPPRLPRPRPRPSCSPRP the “shrunken log2 fold change” value was -0.384. For RRIRSRPPRLPRPRPRPWHIPRP, the “shrunken log2 fold change” value was -0.0156. RRIRYRPPRLPRPRPRPCCHPRP was tested, and the “shrunken log2 fold change” value was -1.36. For RRIRLRPPRLPRPRPRPTFSPRP, the “shrunken log2 fold change” value was -0.0485. For RRIRSRPPRLPRPRPRPAYLPRP, the “shrunken log2 fold change” value was -0.731. With RRIRCRPPRLPRPRPRPYKKPRP the “shrunken log2 fold change” value was 0.104. RRIRSRPPRLPRPRPRPIWIPRP was tested, and the “shrunken log2 fold change” value was -0.0851. For RRIRIRPPRLPRPRPRPLCGPRP, the “shrunken log2 fold change” value was -0.319. With RRIRKRPPRLPRPRPRPPGFPRP the “shrunken log2 fold change” value was 0.55. With RRIRNRPPRLPRPRPRPYISPRP the “shrunken log2 fold change” value was 0.00753. With RRIRDRPPRLPRPRPRPHRIPRP the “shrunken log2 fold change” value was -0.00804. For RRIRERPPRLPRPRPRPSGWPRP, the “shrunken log2 fold change” value was -0.0693. In the case of RRIRDRPPRLPRPRPRPKHLPRP, the “shrunken log2 fold change” value was -0.0209. For RRIRHRPPRLPRPRPRPTVPPRP, the “shrunken log2 fold change” value was -0.0133. RRIRKRPPRLPRPRPRPSTIPRP was tested, and the “shrunken log2 fold change” value was -0.0803. RRIRGRPPRLPRPRPRPNLHPRP was tested, and the “shrunken log2 fold change” value was 0.303. RRIRFRPPRLPRPRPRPWAIPRP was tested, and the “shrunken log2 fold change” value was 0.268. With RRIRGRPPRLPRPRPRPYTGPRP the “shrunken log2 fold change” value was -0.707. RRIRWRPPRLPRPRPRPHYYPRP was tested, and the “shrunken log2 fold change” value was -0.581. In the case of RRIRGRPPRLPRPRPRPQNTPRP, the “shrunken log2 fold change” value was 0.0999. For RRIRARPPRLPRPRPRPMWIPRP, the “shrunken log2 fold change” value was 0.249. In the case of RRIRARPPRLPRPRPRPPHCPRP, the “shrunken log2 fold change” value was 0.521. For RRIRLRPPRLPRPRPRPHCYPRP, the “shrunken log2 fold change” value was 0.011. In the case of RRIRIRPPRLPRPRPRPDCQPRP, the “shrunken log2 fold change” value was 0.000528. With RRIRIRPPRLPRPRPRPYETPRP the “shrunken log2 fold change” value was -0.0282. In the case of RRIRYRPPRLPRPRPRPHLYPRP, the “shrunken log2 fold change” value was -1.35. In the case of RRIRLRPPRLPRPRPRPHNWPRP, the “shrunken log2 fold change” value was -0.0581. RRIRGRPPRLPRPRPRPQSPPRP was tested, and the “shrunken log2 fold change” value was 0.225. RRIRNRPPRLPRPRPRPYFCPRP was tested, and the “shrunken log2 fold change” value was -0.5. RRIRWRPPRLPRPRPRPNYVPRP was tested, and the “shrunken log2 fold change” value was -0.128. In the case of RRIRERPPRLPRPRPRPFIHPRP, the “shrunken log2 fold change” value was -1.12. For RRIRMRPPRLPRPRPRPPDWPRP, the “shrunken log2 fold change” value was 1.7. With RRIRHRPPRLPRPRPRPEFHPRP the “shrunken log2 fold change” value was -0.0718. In the case of RRIRCRPPRLPRPRPRPMICPRP, the “shrunken log2 fold change” value was -0.0738. With RRIRQRPPRLPRPRPRPCLRPRP the “shrunken log2 fold change” value was -0.379. For RRIRHRPPRLPRPRPRPEYTPRP, the “shrunken log2 fold change” value was -0.0512. In the case of RRIRFRPPRLPRPRPRPTAVPRP, the “shrunken log2 fold change” value was 0.117. For RRIRVRPPRLPRPRPRPRCPPRP, the “shrunken log2 fold change” value was -0.00901. RRIRSRPPRLPRPRPRPGNRPRP was tested, and the “shrunken log2 fold change” value was -0.00644. With RRIRTRPPRLPRPRPRPYDFPRP the “shrunken log2 fold change” value was -0.385. RRIRKRPPRLPRPRPRPGDHPRP was tested, and the “shrunken log2 fold change” value was 0.014. In the case of RRIRERPPRLPRPRPRPEQWPRP, the “shrunken log2 fold change” value was 0.127. With RRIRWRPPRLPRPRPRPQKWPRP the “shrunken log2 fold change” value was 0.00891. In the case of RRIRIRPPRLPRPRPRPETDPRP, the “shrunken log2 fold change” value was -0.0362. RRIRTRPPRLPRPRPRPRARPRP was tested, and the “shrunken log2 fold change” value was 0.63. In the case of RRIRFRPPRLPRPRPRPQFIPRP, the “shrunken log2 fold change” value was -0.141. With RRIRMRPPRLPRPRPRPWPHPRP the “shrunken log2 fold change” value was 0.512. RRIRGRPPRLPRPRPRPCSWPRP was tested, and the “shrunken log2 fold change” value was 0.19. In the case of RRIRMRPPRLPRPRPRPGCKPRP, the “shrunken log2 fold change” value was 0.172. For RRIRERPPRLPRPRPRPQAAPRP, the “shrunken log2 fold change” value was -0.194. For RRIRCRPPRLPRPRPRPVYCPRP, the “shrunken log2 fold change” value was -0.755. With RRIRLRPPRLPRPRPRPVLGPRP the “shrunken log2 fold change” value was 0.192. With RRIRQRPPRLPRPRPRPRPPPRP the “shrunken log2 fold change” value was 1.08. With RRIRVRPPRLPRPRPRPGIFPRP the “shrunken log2 fold change” value was -0.0463. In the case of RRIRRRPPRLPRPRPRPWKKPRP, the “shrunken log2 fold change” value was -0.0288. RRIRERPPRLPRPRPRPAFGPRP was tested, and the “shrunken log2 fold change” value was 0.353. With RRIRPRPPRLPRPRPRPESHPRP the “shrunken log2 fold change” value was -0.00995. With RRIRPRPPRLPRPRPRPERVPRP the “shrunken log2 fold change” value was 0.451.
